PMC8516079

Molecular target: TGF-β receptors on MFB-F11 cells
Conditions: scale: fold less potent than HEK293T-expressed TGM1

algal-expressed TGM1 (Heligmosomoides polygyrus TGF-β mimic, mature 5-domain, FLAG-tagged) (ligand)
MFB-F11 Smad-responsive reporter cells, secreted alkaline phosphatase (405 nm), log dilutions starting at 100 ng/mL, 24 h; potency against HEK293T-expressed TGM1: 10
